The record followed here is patent US20230399390A1 (NOVAGO THERAPEUTICS, published 2023).

A word on the EC50: it is the concentration needed to bring the measured effect to its halfway point.

The target of test [1] is T1, human Nogo-A d20plus region (human aa position 543-866), recombinantly produced in E. coli (human, UniProt Q9NQC3 543-866).
T1 construct: range 543-866; also called human d20plus; hu d20+
T1 sequence (looked up): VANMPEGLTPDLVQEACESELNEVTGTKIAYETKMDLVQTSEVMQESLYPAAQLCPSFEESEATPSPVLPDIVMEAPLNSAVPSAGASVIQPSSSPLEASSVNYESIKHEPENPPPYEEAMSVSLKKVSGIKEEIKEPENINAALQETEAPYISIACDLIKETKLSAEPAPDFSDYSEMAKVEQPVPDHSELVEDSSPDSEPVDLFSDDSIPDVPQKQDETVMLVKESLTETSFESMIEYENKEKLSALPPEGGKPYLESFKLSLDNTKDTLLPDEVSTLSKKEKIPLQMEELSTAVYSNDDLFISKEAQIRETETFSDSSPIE
In words: ELISA, coated d20plus (human, as read from the context), internal standard. In general terms: In an ELISA, binding on a coated surface is turned into a signal by an enzyme label.

Test [2] concerns the target T2, rat Nogo-A d20plus region, recombinantly produced in E. coli (rat, UniProt Q9JK11 520-843, limits assumed).
T2 construct: domain: d20plus; also called rat d20plus; rat peptide d20plus
T2 sequence (looked up): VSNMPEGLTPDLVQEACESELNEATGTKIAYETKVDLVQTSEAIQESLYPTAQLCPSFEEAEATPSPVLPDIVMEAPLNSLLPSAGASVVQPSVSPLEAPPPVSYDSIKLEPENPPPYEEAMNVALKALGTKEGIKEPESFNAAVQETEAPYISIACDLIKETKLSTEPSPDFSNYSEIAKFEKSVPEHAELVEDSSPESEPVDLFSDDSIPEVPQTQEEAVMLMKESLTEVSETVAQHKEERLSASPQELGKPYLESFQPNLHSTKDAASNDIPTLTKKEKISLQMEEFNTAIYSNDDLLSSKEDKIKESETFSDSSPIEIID
The test is described as follows: ELISA, coated rat d20plus. The source says: (§1) The neurite outgrowth inhibitor Nogo-A contains 3 inhibitory regions. Two are shared with the splice variant Nogo-B (Nogo-66 located between the two transmembrane regions and the NIR domain at the tip of the N-terminus) and one is shared with the splice variant Nogo-C (Nogo-66). The unique, highly inhibitory domain for neurite outgrowth of Nogo-A is located in the exon 3 of Nogo-A and is called delta 20 region (d20; human aa position 566-748) (Oertle et al., J. Neurosci. 23 (2003), 5393-5406). To confirm the binding properties of antibodies NG004 NG034 and to monitor for cross-reactivity to other species like rat, an ELISA with a fragment containing the d20 region plus some additional amino acids C- and N-terminal of the inhibitory region (human aa position 543-866) was performed. This fragment is called rat or human d20plus and is recombinantly produced in E. coli. To examine that the antibody binds strongly to the d20plus region and to compare the binding properties of the subject antibodies NG004 and NG034 to the already known antibodies (11C7 and Ozanezumab) the ELISA was used and EC₅₀ values were compared.
(§2) The ELISA is performed according to a standard protocol (Engvall & Perlmann, J. Immunol. 109 (1972), 129-135, Engvall & Perlmann, Immunochemistry 8 (1971), 871-874). […] The readouts are performed on the Tecan Sparc plate reader.

Test [3] deals with T1, human Nogo-A d20plus region (human aa …). The test is described as follows: ELISA, coated human d20plus.
Description: as §1, §2

Test [4] shares this target. The test is described as follows: ELISA, plate coated with 3 ug/ml human d20plus.
Description: as §1, §2

Test [5] deals with T3, peptide 35: 137-EPENINAALQETEAP-151 (human).
T3 construct: Spotted on a nitrocellulose membrane; The range counts on the d20plus region; also called spot 35
T3 peptide: EPENINAALQETEAP
The test is described as follows: pepscan, 15-mer peptides on nitrocellulose, NG004 at 1 ug/ml. The procedure:
(§3) Epitope mapping of NG004 was performed using scans of overlapping peptides. The sequences of the d20plus region of Nogo-A (aa 543-866 of human Nogo-A) were synthesized as linear 15-mer peptides with an 11 amino acid overlap between individual peptides. Those peptides were spotted onto nitrocellulose membranes (JPT Peptide Technologies, Berlin, Germany). The membrane was activated for 5 min in methanol and washed in TBS for 10 min at RT. Non-specific binding sites were blocked for 2 hours at RT with Roti®-Block (Carl Roth GmbH+Co. KG, Karlsruhe, Germany). NG004 (1 μg/ml) was incubated in Roti®-Block for 3 h at room temperature. Binding of primary antibody was determined using HRP-conjugated donkey anti-human IgG secondary antibody. Blots were developed and evaluated using ECL and ImageQuant 350 detection (GE Healthcare, Otelfingen, Switzerland).

For test [6], the target named is T4, peptide 36: 141-INAALQETEAPYISI-155 (human).
T4 construct: Spotted on a nitrocellulose membrane; The range counts on the d20plus region; also called spot 36
T4 peptide: INAALQETEAPYISI
Described as above. The procedure:
as §3

The target of test [7] is T5, peptide 34: 133-EEIKEPENINAALQE-147 (human).
T5 construct: Spotted on a nitrocellulose membrane; The range counts on the d20plus region, not on full-length Nogo-A; also called spot 34
T5 peptide: EEIKEPENINAALQE
The test is described as above. The procedure: as §3

B1: Ozanezumab (antibody, V domains shown)
VH: QVQLVQSGAEVKKPGASVKVSCKASGYTFTSYWMHWVRQAPGQGLEWIGNINPSNGGTNYNEKFKSKATMTRDTSTSTAYMELSSLRSEDTAVYYCELMQGYWGQGTLVTVSS
VL: DIVMTQSPLSNPVTLGQPVSISCRSSKSLLYKDGKTYLNWFLQRPGQSPQLLIYLMSTRASGVPDRFSGGGSGTDFTLKISRVEAEDVGVYYCQQLVEYPLTFGQGTKLEIK
Regarding B1, in test [1], the EC50 was 0.2 nM.

B2: anti-Nogo-A specific human antibody NG034 (antibody, V domains shown)
VH: EVQLVETGGGLVPPGGSLRLSCAASGFTFTNYSMHWVRLAPGKRLEYISAISSDGGDPFYASSVKGRVAISRDNSKKTLYLQMGRLRPEDTAVYYCVSDAFDVWGQGTMVTVSS
VL: EIVLTQSPLSLSVTLGQPASISCRSSQSLLYSNGNTYLNWFQQRPGQSPRRLLYRVSNRDSGVPDRFSGSGSGTHFTLKISRVEAEDVGVYYCMQGTHWPRTFGQGTKVEIK
Take B2: the EC50 in test [2] was 0.229 nM; in test [3], 0.298 nM.

B3: anti-Nogo-A specific human antibody NG004 (antibody, V domains shown)
VH: EVQLVESGGGVVQPGRSLRLSCAASGFTFRSHAMHWVRQAPGKGLEWVAVTSYDGTNKYYADSVKGRFTISKDNSKNTLYLQMDSLRVEDTAVYYCARGRAVAGTREDYWGQGTLVTVSS
VL: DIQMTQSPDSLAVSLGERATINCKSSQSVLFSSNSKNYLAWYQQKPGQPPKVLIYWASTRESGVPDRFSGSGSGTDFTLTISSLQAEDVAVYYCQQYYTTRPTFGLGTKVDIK
notes: The neurite outgrowth assay used NG004.h4.m1 (human IgG4 S228P) and NG004.m1 (mouse IgG1); also called NG004.m1; NG004.h4.m1
On to B3, for which the EC50 in test [4] worked out at 0.26 nM. For the same molecule, the binding result in test [5], in test [6] and in test [7] was “binds” throughout.
